Results on six molecules are retold here after patent US20100221248A1 (MIT, published 2010).

Positions count from the first letter of the chain named.

Test [1] has as its target T1, human FcγRIIIA on the surface of human peripheral blood mononuclear cells (non-lymphocyte gate) (human, UniProt P08637 17-254).
T1 construct: whole, on cells; The target is inferred from the stated aim of the experiment, which was recognition of FcRs expressed on cell surfaces; also called RIIIA on PBMCs
The experiment in a line: flow cytometry of human PBMCs with biotinylated MBP-Fn3 complexed to streptavidin-PE. An excerpt:
To determine whether the Fn3 domains were able to recognize FcRs expressed on cell surfaces, each MBP-Fn3 fusion protein was biotinylated, complexed with streptavidin-PE and used to label human peripheral blood mononuclear cells (PBMCs).

Test [2] deals with T2, human FcγRIIA, 131R allele, soluble (human, UniProt P12318 34-217, limits assumed).
T2 construct: also called hFcγRIIA
T2 sequence (looked up): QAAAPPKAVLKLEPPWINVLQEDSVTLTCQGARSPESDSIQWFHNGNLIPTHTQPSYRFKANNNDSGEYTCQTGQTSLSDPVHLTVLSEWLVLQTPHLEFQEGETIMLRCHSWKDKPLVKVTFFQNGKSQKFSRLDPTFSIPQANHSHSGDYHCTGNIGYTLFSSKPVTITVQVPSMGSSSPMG
Kind of test: SPR (Biacore T100), MBP-Fn3 immobilized, soluble FcR injected. As for the experimental part: (§1) Surface Plasmon Resonance Analysis. Steady state affinity measurements were performed on a Biacore T100 biosensor. MBP-Fn3 fusion proteins were immobilized to CM5 sensor chips (Biacore) by standard amine coupling. […] Dissociation constants were calculated after subtraction of background binding to a control flow cell using Biacore T100 Evaluation software.

The target in the next test is T3, human FcγRIIB, soluble (human, UniProt P31994 43-217, limits assumed).
T3 construct: also called hFcγRIIB
T3 sequence (looked up): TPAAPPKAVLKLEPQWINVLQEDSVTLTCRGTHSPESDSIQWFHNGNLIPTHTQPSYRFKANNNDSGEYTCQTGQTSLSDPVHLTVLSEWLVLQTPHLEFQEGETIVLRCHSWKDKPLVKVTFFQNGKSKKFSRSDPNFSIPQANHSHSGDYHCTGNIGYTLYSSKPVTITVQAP
The test is described as above. The protocol:
as §1

The target in test [3] is T4, human FcγRIIA, 131H allele, soluble (human, UniProt P12318 34-217, limits assumed).
T4 construct: also called hFcγRIIA
T4 sequence (looked up): T2 sequence (looked up) with R134H
The test is described as above. The protocol:
as §1

For test [4], the target named is T5, RIIA131R tetramer (biotinylated human FcγRIIA 131R complexed to streptavidin-PE) (human, UniProt P12318 34-217; P22629 37-163, limits assumed, PE conjugate; singly biotinylated).
T5 construct: Biotinylated FcR incubated with streptavidin-PE at a 4:1 molar ratio; Kd values measured against it are apparent (avid) values; also called RIIA tetramer; PE-tagged RIIA tetramer
Kind of test: flow cytometry titration of yeast surface-displayed IIA726 with streptavidin-PE RIIA131R tetramer, 2 h at room temperature. The protocol:
(§2) The yeast cells were washed and analyzed by flow cytometry.
(§3) Characterization of Individual Clones. Plasmid DNA was recovered from the later library generations (Zymoprep II kit) and transformed into competent DH5a bacteria (Invitrogen). Individual colonies (usually ten) were grown, miniprepped, and sequenced, as well as re-transformed into EBY100 yeast (EZ Yeast Transformation Kit, Zymo Research). The resulting clones were cultured in SD-CAA and induced in SG-CAA for analysis. To rapidly compare different clones, 0.1 OD.ml aliquots of yeast were labeled with a low and a high concentration of PE-tagged RIIA (1 nM, 30 nM) or RIIIA (0.3 nM, 10 nM) tetramer for 1 hour at RT prior to flow cytometry (Coulter Epics XL). The apparent tetramer Kd was estimated from the ratio of the two mean fluorescence readings. […] The labeling volumes (in PBSA) were chosen to give at least a 10-fold excess of FcR over Fn3. The yeast cells were centrifuged and washed with 0.5 ml PBSA for analysis by flow cytometry. The Kd value was determined by fitting the data to the equation y=A[tetramer]/([tetramer]+Kd)+B.

In test [5] the target is T5, RIIA131R tetramer (biotinylated human …). Kind of test: yeast display titration with PE-tagged tetramer, flow cytometry; apparent (avid) Kd; parent clone IIA726 from the seventh FACS sort. The protocol: as §2, §3
The target in test [6] is T6, RIIB tetramer (biotinylated human FcγRIIB complexed to streptavidin-PE) (human, UniProt P31994 43-217; P22629 37-163, limits assumed, PE conjugate; singly biotinylated).
T6 construct: Biotinylated FcR incubated with streptavidin-PE at a 4:1 molar ratio; also called PE-tagged RIIB tetramer
Kind of test: flow cytometry titration of yeast surface-displayed IIA726 with streptavidin-PE RIIB tetramer, 2 h at room temperature. As for the experimental part: as §2, §3

Test [7] addresses T5, RIIA131R tetramer (biotinylated human …). The experiment in a line: yeast display with PE-tagged tetramer, flow cytometry; apparent (avid) Kd; clone IIA827, IIA726 with the single mutation printed 188S. As for the experimental part: as §3
The target in test [8] is T6, RIIB tetramer (biotinylated human …). Kind of test: yeast display, flow cytometry with PE-tagged tetramer.
The target in test [9] is T2, human FcγRIIA, 131R allele, soluble. Kind of test: SPR (Biacore T100), steady state, MBP-Fn3 immobilized, soluble FcR injected. As for the experimental part:
as §1

Test [10] addresses T4, human FcγRIIA, 131H allele, soluble. Described as above. As for the experimental part:
as §1

T5 sequence (P22629 37-163 limits assumed, one chain of several): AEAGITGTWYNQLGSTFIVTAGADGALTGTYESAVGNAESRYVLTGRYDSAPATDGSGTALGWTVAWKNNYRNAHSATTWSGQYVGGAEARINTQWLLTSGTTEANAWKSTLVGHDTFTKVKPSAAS
T6 sequence (P22629 37-163 limits assumed, one chain of several): as above
T1 sequence (P08637 17-254): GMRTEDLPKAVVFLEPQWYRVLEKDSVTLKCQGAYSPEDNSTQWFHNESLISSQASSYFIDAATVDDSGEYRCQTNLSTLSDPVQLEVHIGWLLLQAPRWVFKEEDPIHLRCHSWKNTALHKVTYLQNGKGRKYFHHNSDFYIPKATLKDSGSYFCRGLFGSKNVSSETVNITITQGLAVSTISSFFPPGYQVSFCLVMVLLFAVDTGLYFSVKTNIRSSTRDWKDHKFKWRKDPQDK

B1: MBP-IIIA537 (designed binder)
chain: LGENLYFQSVSDVPRDLEVVVATPTSLLINWDLPFSDSYRITYGETGGNSPVQGFTVPGTESIATISGLKPGVDYTITVYAVASSGSNSYPISINYRTEIDKPSQ
notes: Fn3 domain as a C-terminal fusion to MBP, expressed in E. coli Rosetta(DE3); For PBMC labelling it was biotinylated and complexed with streptavidin-PE; also called MBP fusion of IIIA537; not shown: limits and vector linker not stat
As to B1, the binding result in test [1] is listed as “binds”; in [2], “no binding”; with human FcγRIIB, soluble, “no binding”; in test [3] it was “no binding”.

B2: MBP-IIIA626 (designed binder)
chain: B1 chain with L33M, T42A, G54E, E61D, I63L, A83T
notes: Fn3 domain as a C-terminal fusion to MBP, expressed in E. coli Rosetta(DE3); For PBMC labelling it was biotinylated and complexed with streptavidin-PE; also called MBP fusion of IIIA626; not shown: limits and vector linker not stat
On to B2, for which the binding result in test [1] is reported as “binds”; in test [2], “no binding”; with human FcγRIIB, soluble, “no binding”; in [3], “no binding”.

B3: IIA726 (mutant Fn3 domain, yeast surface-displayed clone) (designed binder)
chain: VSDVPGDLEVVAATPTSLLISWCTHLHWDYYRIFYGETGGNSPVQEFTVPALCPGATISGLKPGVDYTITAYAVTVGGDDWPISINYRTEIDEPSQ
notes: It contains a pair of Cys residues in the BC and DE loops; also called yeast surface-displaying IIA726
Take B3: the “EC50 (read off the curve)” value in test [4] is roughly 1 nM. In addition, in [5], the Kd was found to be 1.2 nM. Moreover, the binding result in test [6] was “no binding (tested: 100 nM)”.

B4: IIA827 (mutant Fn3 domain, yeast surface-displayed clone) (designed binder)
chain: B3 chain with I83S
notes: Derived from IIA726 by a single mutation, printed '188S'; also called clone IIA827
In the case of B4, the Kd in [7] amounted to 0.54 nM. Also, in [8], the binding result is “no binding (tested: 100 nM)”.

B5: MBP-IIA726 (designed binder)
chain: LGENLYFQSVSDVPGDLEVVAATPTSLLISWCTHLHWDYYRIFYGETGGNSPVQEFTVPALCPGATISGLKPGVDYTITAYAVTVGGDDWPISINYRTEIDEPSQ
notes: Fn3 domain as a C-terminal fusion to MBP; It was first expressed in Rosetta(DE3), then in Rosetta-gami 2 to promote the disulfide bond between the BC and DE loops; For PBMC labelling it was biotinylated and complexed with streptavidin-PE; also called MBP fusion of IIA726; not shown: limits and vector linker not stat
As for B5, the binding result in the test with human FcγRIIB, soluble was “no binding”.

B6: MBP-IIA827 (designed binder)
chain: B5 chain with I92S
notes: Produced in Rosetta-gami 2; not shown: limits and vector linker not stat
B6: the figures for the Kd in [9] and in [10] were 850 nM and 6200 nM, respectively.
